Experimental data reported in paper PMC6405316 (Nature, 2019).

Tests used:
[1] = target: KCTD12 H1 domain (residues 200–325) (human) (UniProt Q96CX2); test: SEC
[2] = target: His6-SMT3-tagged KCTD16 BTB domain (residues 23–124) (human, UniProt Q68DU8 23-124); test: pull-down
[3] = target: KCTD16 BTB domain wild-type (residues 23–124), SMT3 tag cleaved with ULP1 (human, UniProt Q68DU8 23-124); test: pull-down
[4] = target: KCTD16 21–279, His6-GST tag cleaved by 3C protease (human, UniProt Q68DU8 21-279); test: SEC
Chain of KCTD16 21–279, His6-GST tag cleaved by 3C protease (Q68DU8 21-279): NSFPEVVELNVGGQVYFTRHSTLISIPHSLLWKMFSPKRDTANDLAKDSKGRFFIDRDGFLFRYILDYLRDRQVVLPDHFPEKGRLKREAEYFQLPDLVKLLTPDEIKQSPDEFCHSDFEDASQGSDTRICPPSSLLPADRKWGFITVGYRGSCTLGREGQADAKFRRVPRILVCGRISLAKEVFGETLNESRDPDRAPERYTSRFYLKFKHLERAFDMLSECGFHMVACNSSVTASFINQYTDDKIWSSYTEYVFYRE

[5] = target: KCTD12 32–325, His6-GST tag cleaved by 3C protease (human, UniProt Q96CX2 32-325); test: SEC
Chain of KCTD12 32–325, His6-GST tag cleaved by 3C protease (Q96CX2 32-325): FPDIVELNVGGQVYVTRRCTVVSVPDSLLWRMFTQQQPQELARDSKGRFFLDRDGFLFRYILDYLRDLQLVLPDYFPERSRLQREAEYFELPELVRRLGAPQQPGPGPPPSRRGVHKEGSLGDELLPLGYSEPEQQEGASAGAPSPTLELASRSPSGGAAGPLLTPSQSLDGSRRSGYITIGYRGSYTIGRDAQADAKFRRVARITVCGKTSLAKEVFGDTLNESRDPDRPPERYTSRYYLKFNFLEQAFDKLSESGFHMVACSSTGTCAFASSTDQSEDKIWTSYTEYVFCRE

[6] = target: His6-GST-tagged KCTD12 32–325 (human, UniProt Q96CX2 32-325); test: pull-down
Chain of His6-GST-tagged KCTD12 32–325 (Q96CX2 32-325): as above

Chain of His6-SMT3-tagged KCTD16 BTB domain (residues 23–124) (Q68DU8 23-124): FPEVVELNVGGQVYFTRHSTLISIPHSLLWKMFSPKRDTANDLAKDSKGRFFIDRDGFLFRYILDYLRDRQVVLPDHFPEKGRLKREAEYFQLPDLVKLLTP
Chain of KCTD16 BTB domain wild-type (residues 23–124), SMT3 tag cleaved with ULP1 (Q68DU8 23-124): as above
Chain of KCTD12 H1 domain (residues 200–325) (human) (Q96CX2 200-325): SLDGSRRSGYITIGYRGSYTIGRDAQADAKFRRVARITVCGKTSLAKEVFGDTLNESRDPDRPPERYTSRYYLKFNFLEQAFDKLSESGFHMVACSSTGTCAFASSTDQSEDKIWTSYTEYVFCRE

Molecule: Human Gβ1γ2 heterodimer (His6-Gβ1, Gγ2 C68S) (from UniProt P62873;P59768) (complex)
- stoichiometry N (Gβγ per KCTD12H1 chain (5:5)) [1]: 1

Molecule: KDPIEDINSPEHIQRRLSLQLPILHHAYLPSIGGVDAS [His6-GST-tagged GABAB2 C-terminal fragment (residues 876–913)]
- binding result [2]: binds
- binding result [3]: binds

Molecule: KDPIEDINSPEHIQRRLSLQLPILHHAYLPSIGGVDAS [GABAB2 876–913, His6-SUMO tag cleaved by 3C protease]
- binding result [4]: binds
- binding result [5]: binds

Molecule: KDPIEDINSPEHIQRRLSLQLPILHHAYLPSIGGVDAS [His6-SUMO-tagged GABAB2 876–913]
- binding result [6]: binds
